Patent publication US20250334585A1

Molecular target: immobilized gingipain (GP protein) of the anti-gingipain ELISA of Example 18
Assay: ELISA on immobilized gingipain

B1: KB001 (antibody, V domains shown)
VH: EVQLKQSGPGLVAPSQSLSITCTVSGFSLSIYSVHWVRQPPGKGLEWLGMIWGGGSSDYNSALKSRLSISKDNSKSQVFLKMNSLQTDDTAMYYCARNGNFYAMDYWGQGTSVTVSS
VL: QIVLTQSPAIMSASLGERVTMTCTASSSVSSSFLHWYQQKPGSSPQLWIYSTSNLASGVPARFSGSGSGTSYSLTISSMEAEDAATYYCHQYHHSPYIYTFGGGTKLEIKR
B1 showed a detectable level of concentration of 3 ng/mL.
